The nature of this series: label from the status in PepcDB records.

Consider “MYANKVKKIAAVHDLSGMGRVSLTVVIPILSSMGFQVCPLPTAVLSNHTQYPGFSFLDLTDEMPKIIAEWKKLEVQFDAIYTGYLGSPRQIQIVSDFIKDFRQPDSLIVADPVLGDNGRLYTNFDMEMVKEMRHLITKADVITPNLTELFYLLDEPYKADSTDEELKEYLRLLSDKGPQVVIITSVPVHDEPHKTSVYAYNRQGNRYWKVTCPYLPAHYPGTGDTFTSVITGSLMQGDSLPMALDRATQFILQGIRATFGYEYDNREGILLEKVLHNLDMPIQMASYELI”, for which the protein production result was “not failed”.
For the sequence “MYDMLKFEFSDRFLLFSYFVLIMFIGSLLLMLPISWEGDGKLAYIDALFTAVSAVSITGLTTVKMEGFSTFGFILIMLLIQLGGLGFISITTFYLLIPKKKMNLTDARIIKQYSLSNIEYNPIRILKSILFITFSIEMIGLILILICFKLRGVNISFLEALFTTISAFCNAGFSMHSESIYAWRDVPEAIVVVSILIICGGLGFMVYRDVNNTIKNKKKLSLHAKIVFSLSFFLIIIGAILFFFTEMHKLKAGYSMSTLIFNSIFYSISTRTAGFNYLDNSLISGRTQIISLPFMFIGGAPGSTAGGIKITTFFLIVLAVVKNQNGNGYIIGSYKVSIDSIRFALLFFARAIFILSFSFFMLLFFEGGSGNWKVIDLGYEVFSAFGTVGLSVGVTQDLSFWGKVIIIFTMFAGRIGLFSMAVFVSRKSRFEEFTRPRQDILVG”, the protein production result is recorded as “failed”.
The value for “MYDYSILPNRIILCVDLRSFYASVSCIKMGLDPMHTKLAVVGDVNRNGSIVLAATPPLKALGVKKMARLYEIPRRKDILVVNPIMSTYIKCSNYITKLALQYVPIEDFHQYSIDEFFMDITDSIHLFAQDPYEFAMKFKREIYDHTRIECTIGIAPNPLMSKVALDIEAKKNKDGIAFWQYEDIPTKLWSIRPLNKFWGISYKTEEKLNRKGIYSIGDLANYPLKYLKQSFGKIGEELHLHSHGIDFSRISEKYVPATTSIGKSQILMRDYTIEEFPIILLEHIEEVCYRLRRQTKLAQTIHFSVGYSKSYTGGIRKTHTLNRPTNLTMDIYHICTYFLHQQYTGEPIRSINISLTNLIQEGEEQISLFDNVTKREQEMKLTKVMDEIRTKFGKNSILRGISYTHSATARHRNTLIGLEHHHHHH” was “failed”.
The entry for “MYEITATIVTYKNPDSVLLKAINSFLNTKLEVRLYIIDNSPTDYLKDISYDPRVEYIFMNSNNGFGAGHNVILRDPEKMGKYHLILNPDISFEEGTLEKLYDYMEGKLDVGNVMPKVIYPNGELQYLCKLLPTPKDWIVRMFLPIKSIKNRIDYNFEMKFADYDREMNIPYLSGCFMFLRKSVIEGIGVFDEGIFMYGEDTDLNRRIYRKYKTMYYPQVTITHHFEKGSHKSLRLLWIHVKAAIYYLNKWGWFFDKERSIINITVKQQYIRKLEHHHHHH” is “not failed”; for “MYELYTLLAEYYDTIYRRRIERVKAEIDFVEEIFKEDAKREVRRVLDLACGTGIPTLELAERGYEVVGLDLHEEMLRVARRKAKERNLKIEFLQGDVLEIAFKNEFDAVTMFFSTIMYFDEEDLRKLFSKVAEALKPGGVFITDFPCWFYGGRDGPVVWNEQKGEEKLVIMDWREVEPAVQKLRFKRLVQILRPNGEVKAFLVDDELNIYTPREVRLLAEKYFEKVKIYGNLKRELSPNDMRYWIVGIAKSF” it is “not failed”; for “MYFCGIQNSTRTKGMNKAKSTMKLFGLIGLLILWNCSCVDRHRSHALCEQSLIDSLEVRAQDSLFSNLPYSRSLLRNAMRQAQDSMSYYRLMGLYGKTFFISSDFDSILYYNRPVKEYDKRAAACPRWNDVLSDVYNIEGNVWMQLNQPDSAVAYYEKSYAYRLKGEKGHLLSDICMNLADAHLHRGELAHTASYYRKALFICDSLHLSEHSKFPVYCGLGQTYMDLRDFDLSNHYYELAGQFFDEMTVSEKWVYLNNRGNHYYYKKDYQEALVYMRQAAELIADYPQMVFESNLSKVNLGDLYLLTNRLDSAENNLNEGYRYFSEIKNNSAMHYIETLMIELFLKKGNIARAREMIARTASTGHVDANMLTIRNQYLQHYYEKAGDYRNAYEYLKRDYQLNDSIRSERIRTRVAELDMRYRQDTIVLRKEMQIQRQAGEVRVLKLSMYIWVLVCLLLAAGTVVIIWYMRKKREFLRERFFQQINRVRMENLRSRISPHFTFNVLGREINQFNGSEEVKNNLMELVKYLRRSLELTEKLSVSLQDELDFVQSYIGLESGRVGEDFTASVVVEEGLDAKSIMIPSMIVQIPVENAIKHGLAGKDGEKELTIRISREGKGVRIVICDNGRGYLPQVASSTRGTGTGLKVLYQTIQLLNTKNKNEKIRFNIGNRNDGQTGTQVSVYIPFHFSYDL” it is “failed”.
For “MYFGQNEACKKNHVVIHNELGPGIDLNIACRQFSIERTPSMFHTLKYKDPFYIIEFEDNNQLPHGERWYCLLSHGTRPKYWYDIEVYRQGYYPSCGQLRSWIAKQDGIWFTRRYDSPPGHVLNWKIQ”, the protein production entry was “failed”.
Turning to “MYFLYVGIFGALGGMCRYAMNLWLGGGDFPSATLAVNLIGCFLLAFIMPFLAEKSRISLVLLNGIGTGFIGAFTTFSAFSVDTIELLQQGEVVLAISYILVSLIGGLVMVKFGRRFSNKLLRRGAHHVD”, the protein production entry is recorded as “failed”.
The entry for “MYINKFVPVYTLLILIYSFNASAEWTGDNTNAYYSDEVISELHVGQIDTSPYFCIKTVKANGSGTPVVACAVSKQSIWAPSFKELLDQARYFYSTGQSVRIHVQKNIWTYPLFVNTFSANALVGLSSCSATQCFGPK” is “failed”; for “MYIPNAFRESDTHNLQEHMDKTRLAILVTQGDDGLHATHLPLLLRSDEGPYGTLYGHMAKANPQWQQLNADAEAMVIFPGEDAYVSPSFYPSKAEHGKVVPTWNYLAVHAYGQAECFTDPDRLHQLLNDLTDRHESSRAQPWSINDAPADYIAKMLGAIVGFSIPVQRLQGKRKLSQNRSAEDMAGVRDGLGASHLANDQQIARLMSGWRPS” it is “not failed”; for “MYKIVSDSACDLSKEYLEKHDVTIVPLSVSFDGETYYRDGVDITRDECYQRMVDDPKLFPKTSLPSVESYADVFRSFVEQGFPVVCFTITTLFSGSYNSAINAKSLVLEDYPDANICVIDSKQNTVTQALLIDQFVRMLEDGLSFEQAMSKLDALMASARIFFTVGSLDYLKMGGRIGKVATAATGKLGVKPVIIMKDGDIGLGGIGRNRNKLKNSVLQVAKKYLDENNKDNFIVSVGYGYDKEEGFEFMKEVESTLDVKLDSETNVAIGIVSAVHTGPYPIGLGVIRKYETL” it is “not failed”.
The value for “MYKKLILLFFILITFNLFSDEDVLVFYSQPSSIASKFVTGILQDSYGRIWFGTKEGLAYYDGIKYKNYEYIPFSKDSIQSSQIQCLYNDPRKAENGSDVFWIGTFYGVERFNVDTETFTHFDMTSSVVLCFLRDSHGRLWIGTLDGLYILNEDDGSVVKFSQASEFYIGNNGISHIYEDSEGRIYACTHEGLWEYDEPNKRFRRSRLFEKNSAVTDSIINNIFEEDGIYWVSVWDTGLFRIDPKNGKRDLFSFSNNKITCLSNEFSDNVLLIGTWGGGLISFDKNTYSYTEYTSKQRSYNLSNDFIFSIYVDTYGSLWVGTNGGGVNIYDTKRMWSKLILPHENKIDGRENSVSGLTKDKNGNLWISLLNNGITYYDLSTGKKKYYRYSESKIISNSVFKFYIDKNEDIWVGTDLGLCKYDKKKDAFVGVNLYNDNIIEDGERLIYNIISDDNEFLWIGTYDGGLIKFSPSSGILKRYKNDPKNPNSICSNLVFSLLIDSYKRLWVGTNKGLAEYKPSTDEFAIYRYDVNNRKGISSDRITSLFQDVSGKLWIGTSDGGINIFDTEKKEALNYTANEGLPANFIIGMTHMDNHSICVTAIKGMTIFNKDTEIIYSYTLYNHERRFTTVPIMIGDQCFVGTQEGVLGMDINYLLSFKRQEVPVKIRTIGINGNQTPVFKIDLQKTYKYKYSENNISFEFSSMDLSPLSRPSYIFMLEGFDKNWINANMKNYVQYTNLKPGKYTFKVKDISNPYPEPTSFTFIIEKPFWLSTPMIAVYILIFAGLTFLACRINRLFQYKIANKKLQQEQKDLISANEQLTVLSTVDELTGVGNRRQLDTVGKDLWRRGLDNKQPISLIMIDIDLFKQYNDLYGHQAGDNVLRTVAQTLQKKLRAKYDFVGRYGGEEFLVLLYNSSASETMKIAEKLRIEIKNLNIEHSAEKDKILTISLGAYTSVPNNELSYETMLSFADSALYKAKESGRDICKMYTE” was “failed”; that for “MYKKNLMKLLPAVAVIIAIAAAGFQQDSEVKSTKTVQAAENELIKSDELTSLLTTAYFNDGGMKDTDEADSSILKTKKSKSKIKKAGITTGKTKALPEKSAAASGQGQGTTTTPTTSVPKGGYKDGIYQGSGTGFGGTITVQVTISGGKIASIEILSAAGETGSYFASAKGVISKMISGQTPNVDAVSGATYSSNGIIQAVQNALSKAGKGKAAKTTKKTTKKNTNTSNKTTIPVEITKPSGEVTYKDGMYTAEAEGFDGPIKVTVTIKDGKITAITNTNTDTKEYFNKAWNSIQPKILEKQAVYGVDTVIGATFSSNGILKAVQKALEQASVNVTPAPEVTVSPTPVPTTAPAPVIPDTPKVLYNDGTYTGTGIGYGGKINISVTIKDGIITEVSQTNEGETPRYFRNAWNVIQPAIIAKQSTDGIDTVSGATYSSEGILYGAKSALEQALKTSDITATPTPNPTATPEPTAAPEPTAAPEPTAAPEPTAAPEPTATPEPTATPEPTATPEPTTAPGAGYKDGSYTGTGEGFNGQVTVTINVSGGNIVSAGYDGEDDEPEFSNAWNGIYNQIMGKQSADGIDTVTDATYSSNGLIQAFQSAISQAK” was “failed”.
In the case of “MYKLDHLNHNTLDESSLELHETPKGYTNVALFGLDSRDGELSGGVRSDSIMIVSINNKTGDVKIISVYRDTLLKQQDGSYEKANAAYSFGGPQEAVAMLNRNLDLDITKYASVNFNSLADIIDILGGVEVELTSEEIFWLNGYTAETSQVVGRQTHTLDENSPGVHNLDGIQAVSYTRIRYTAGDDFKRAERQRIILQKMIQKLKTAGPVKWNKILDQVLPEISTNMTTPDIMKLGLNIFRYKIGETKGFPFDITTSENVIGLEGSYAVAIGHADNVRQLHEQLFGETGYQPSDEVQQISQDVAYLTGVLEHHHHHH”, the protein production result was “not failed”.
For “MYKLMIADDEPLIRRGIKQLIDLSSLQIGEIYEASTGEEALKVFEEFKPEIVLMDINMPKIDGLSVAKKIKSINPDTKIAIITGYNYFDYAQTAIKIGVEDYILKPISKSDVSEIIVKLVSSLQKERKDKEIEKVLEKITTVDTQDNIAKNNYKELIQNIIEESYTDSQFTLSVLSEKLDLSSGYLSIMFKKNFGIPFQDYLLQKRMEKAKLLLLTTELKNYEIAEQVGFEDVNYFITKFKKYYQITPKQYREMVLKNENE”, the protein production entry was “not failed”.
The entry for “MYKSPLTLLTLLTICFGFFDLSSALYGSSSPVVQLTASNFKSKVLNSNGVVLVEFFAPWCGHCKALTPTWEKVANILKGVATVAAIDADAHQSAAQDYGIKGFPTIKVFVPGKAPIDYQGARDAKSIANFAYKQIKGLLSDRLEGKSKPTGGGSKEKKSEPSASVELNASNFDDLVIESNELWIVEFFAPWCGHCKKLAPEWKRAAKNLQGKVKLGHVNCDVEQSIMSRFKVQGFPTILVFGPDKSSPYPYEGARSASAIESFASELVESSAGPVEVTELTGPDVMEKKCGSAAICFISFLPDILDSKAEGRNKYLEMLLSVAEKFKKQPYSFMWVAAVTQMDLEKRVNVGGYGYPAMVAMNVKKGVYAPLKSAFELQHLLEFVKDAGTGGKGNVPMNGTPEIVKTKEWDGKDGELIEEDEFSLDELMGGDDAVGSKDEL” is “failed”; for “MYKVGIVLFDDFTDVDFFLMNDLLGRTSDSWTVRILGTKPEHHSQLGMTVKTDGHVSEVKEQDVVLITSGYRGIPAALQDENFMSALKLDPSRQLIGSICAGSFVLHELGLLKGKKLTTNPDAKAVLQGMGGDVQDLPLVIEGNIATAGGCLSLLYLVGWLAERLFDSVKRKQIQNQLIPAGQMEIFETLISETIQSAESAYEYRSACESDAESLVV” it is “not failed”.
